Experimental data reported in paper PMC9832388, “A novel method for real-time analysis of the complement C3b:FH:FI complex reveals dominant negative CFI variants in age-related macular degeneration” (Frontiers in Immunology, 2022).

Target: C3b (UniProt P01024 23-667; P01024 749-1663)
Experiment: cell-based or functional assay

Chain of C3b (P01024 23-667, chain 1 of 2): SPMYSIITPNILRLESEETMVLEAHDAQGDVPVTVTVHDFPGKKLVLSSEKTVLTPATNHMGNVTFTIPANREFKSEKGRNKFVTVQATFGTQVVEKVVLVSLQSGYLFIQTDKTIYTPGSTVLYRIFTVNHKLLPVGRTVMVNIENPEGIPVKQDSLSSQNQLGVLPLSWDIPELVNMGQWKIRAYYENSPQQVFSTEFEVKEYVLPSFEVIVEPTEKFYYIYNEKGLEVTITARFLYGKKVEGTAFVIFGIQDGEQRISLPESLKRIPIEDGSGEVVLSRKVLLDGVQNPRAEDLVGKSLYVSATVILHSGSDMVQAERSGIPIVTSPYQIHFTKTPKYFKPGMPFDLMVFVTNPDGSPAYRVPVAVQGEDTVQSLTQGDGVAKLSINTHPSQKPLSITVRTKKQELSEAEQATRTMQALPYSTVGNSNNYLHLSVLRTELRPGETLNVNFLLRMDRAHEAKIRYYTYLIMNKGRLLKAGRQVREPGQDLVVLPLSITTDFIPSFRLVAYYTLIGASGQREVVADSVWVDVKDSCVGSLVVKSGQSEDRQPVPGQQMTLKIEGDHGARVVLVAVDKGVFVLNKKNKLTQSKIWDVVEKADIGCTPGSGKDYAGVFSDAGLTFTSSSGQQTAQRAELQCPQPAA
Chain of C3b (P01024 749-1663, chain 2 of 2): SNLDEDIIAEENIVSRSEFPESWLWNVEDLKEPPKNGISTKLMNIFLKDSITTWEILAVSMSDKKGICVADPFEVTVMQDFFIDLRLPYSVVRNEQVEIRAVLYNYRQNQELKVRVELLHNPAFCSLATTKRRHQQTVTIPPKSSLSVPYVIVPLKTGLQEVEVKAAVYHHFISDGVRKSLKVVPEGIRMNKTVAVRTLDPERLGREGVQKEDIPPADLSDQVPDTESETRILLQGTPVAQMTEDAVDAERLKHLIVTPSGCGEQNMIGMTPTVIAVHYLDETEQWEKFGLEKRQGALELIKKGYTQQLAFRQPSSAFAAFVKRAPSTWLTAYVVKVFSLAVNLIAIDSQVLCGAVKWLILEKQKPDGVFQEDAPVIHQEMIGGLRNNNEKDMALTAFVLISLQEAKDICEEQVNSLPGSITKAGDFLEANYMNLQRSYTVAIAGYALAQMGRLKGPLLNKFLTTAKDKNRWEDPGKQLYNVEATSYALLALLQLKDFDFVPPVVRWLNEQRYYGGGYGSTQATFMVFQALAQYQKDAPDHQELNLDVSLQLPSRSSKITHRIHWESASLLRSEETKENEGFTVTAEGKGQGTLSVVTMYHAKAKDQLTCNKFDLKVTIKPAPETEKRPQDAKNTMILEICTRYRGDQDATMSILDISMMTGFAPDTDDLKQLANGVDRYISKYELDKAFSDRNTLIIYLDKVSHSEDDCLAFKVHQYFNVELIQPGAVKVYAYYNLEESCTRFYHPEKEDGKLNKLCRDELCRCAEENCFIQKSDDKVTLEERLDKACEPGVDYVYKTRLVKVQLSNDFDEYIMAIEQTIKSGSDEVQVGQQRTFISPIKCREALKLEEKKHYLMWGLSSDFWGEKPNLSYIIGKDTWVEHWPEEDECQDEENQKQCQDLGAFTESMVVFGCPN

B1: I340T FI (enzyme, human)
chain 1: KVTYTSQEDLVEKKCLAKKYTHLSCDKVFCQPWQRCIEGTCVCKLPYQCPKNGTAVCATNRRSFPTYCQQKSLECLHPGTKFLNNGTCTAEGKFSVSLKHGNTDSEGIVEVKLVDQDKTMFICKSSWSMREANVACLDLGFQQGADTQRRFKLSDLSINSTECLHVHCRGLETSLAECTFTKRRTMGYQDFADVVCYTQKADSPMDDFFQCVNGKYISQMKACDGINDCGDQSDELCCKACQGKGFHCKSGVCIPSQYQCNGEVDCITGEDEVGCAGFASVTQEETEILTADMDAERRRIKSLLPKLSCGVKNRMHI
chain 2: TVGGKRAQLGDLPWQVAIKDASGITCGGIYIGGCWILTAAHCLRASKTHRYQIWTTVVDWIHPDLKRIVIEYVDRIIFHENYNAGTYQNDIALIEMKKDGNKKDCELPRSIPACVPWSPYLFQPNDTCIVSGWGREKDNERVFSLQWGEVKLISNCSKFYGNRFYEKEMECAGTYDGSIDACKGDSGGPLVCMDANNVTYVWGVVSWGENCGKPEFPGVYTKVANYFDWISYHVGRPFISQYNV
Which “inhibition of the activity of WT FI in a fluid phase CA assay with increasing I340T FI (~25% at equimolar, 30% at 2-fold molar)” value does the source give for B1 here?
Its value is 30%.
